From patent US12649772B2

Target: myelin basic protein peptide on HLA-DRB1*15:01 (human)
Test: estimate stated in the description; not measured in this filing

**Q.** Which Kd does the source give for Ob.1A12 here?
**A.** > 100 µM
